Experimental data from PMC3779351 (Journal of Molecular Biology, 2013).

Columns and labels:
Experiment in all cases: SPR
GST-Cul5^NTD His48Ala = GST-Cul5^NTD His48Ala (mouse, UniProt Q9D5V5 1-384, His48Ala | Val341Arg | Leu345Asp)
GST-Cul5^NTD Leu52Ala = GST-Cul5^NTD Leu52Ala (mouse, UniProt Q9D5V5 1-384, Leu52Ala | Val341Arg | Leu345Asp)
GST-Cul5^NTD (wild type) = GST-Cul5^NTD (wild type) (mouse, UniProt Q9D5V5 1-384, Val341Arg | Leu345Asp)
GST-Cul5^NTD Gln113Ala = GST-Cul5^NTD Gln113Ala (mouse, UniProt Q9D5V5 1-384, Gln113Ala | Val341Arg | Leu345Asp)
GST-Cul5^NTD Phe41Ala = GST-Cul5^NTD Phe41Ala (mouse, UniProt Q9D5V5 1-384, Phe41Ala | Val341Arg | Leu345Asp)
Sequence of GST-Cul5^NTD Phe41Ala (Q9D5V5 1-384 F41A/V341R/L345D): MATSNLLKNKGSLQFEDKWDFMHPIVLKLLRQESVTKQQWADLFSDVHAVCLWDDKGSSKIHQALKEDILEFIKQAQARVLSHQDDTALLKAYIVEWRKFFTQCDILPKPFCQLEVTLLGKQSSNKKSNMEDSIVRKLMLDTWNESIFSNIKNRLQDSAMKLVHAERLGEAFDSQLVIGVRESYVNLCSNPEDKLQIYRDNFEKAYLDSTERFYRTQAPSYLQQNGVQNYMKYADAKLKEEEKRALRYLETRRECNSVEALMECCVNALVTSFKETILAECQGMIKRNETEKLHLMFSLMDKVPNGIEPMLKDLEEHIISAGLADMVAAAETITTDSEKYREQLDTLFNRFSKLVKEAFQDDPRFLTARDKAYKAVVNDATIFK

Sequence of GST-Cul5^NTD Leu52Ala (Q9D5V5 1-384 L52A/V341R/L345D): as the sequence (Q9D5V5 1-384 F41A/V341R/L345D) above, with A41F, L52A counted along it
Sequence of GST-Cul5^NTD (wild type) (Q9D5V5 1-384 V341R/L345D): as the sequence (Q9D5V5 1-384 F41A/V341R/L345D) above, with A41F counted along it
Sequence of GST-Cul5^NTD Gln113Ala (Q9D5V5 1-384 Q113A/V341R/L345D): as the sequence (Q9D5V5 1-384 F41A/V341R/L345D) above, with A41F, Q113A counted along it
Sequence of GST-Cul5^NTD His48Ala (Q9D5V5 1-384 H48A/V341R/L345D): as the sequence (Q9D5V5 1-384 F41A/V341R/L345D) above, with A41F, H48A counted along it

B1: ASB9–Elongin B/C ternary complex (wild type) (complex)
chain 1: SDWSPMHEAAIHGHQLSLRNLISQGWAVNIITADHVSPLHEACLGGHLSCVKILLKHGAQVNGVTADWHTPLFNACVSGSWDCVNLLLQHGASVQPESDLASPIHEAARRGHVECVNSLIAYGGNIDHKISHLGTPLYLACENQQRACVKKLLESGADVNQGKGQDSPLHAVARTASEELACLLMDFGADTQAKNAEGKRPVELVPPESPLAQLFLEREGPPSLMQLCRLRIRKCFGIQQHHKITKLVLPEDLKQFLLHL
chain 2: […]
chain 3: […]
With B1 the “fold loss in affinity against wild-type Cul5” value (GST-Cul5^NTD His48Ala) was 50 fold, the binding result (GST-Cul5^NTD Leu52Ala) was “binds” and the binding result (GST-Cul5^NTD (wild type)) was “binds”. For the same binder, the binding result (GST-Cul5^NTD Gln113Ala) was “binds” and the “fold loss in affinity against wild-type Cul5” value (GST-Cul5^NTD Phe41Ala) was 50 fold.
